From US20220298212A1 (Molecular Partners, published 2022)

target: T1, biotinylated human 4-1BB (recombinant Fc fusion protein of the extracellular domain of human 4-1BB) (human, UniProt Q07011 24-186, biotinylated (site not stated)); assay: SPR (ProteOn), biotinylated human 4-1BB on NLC chip, PBST
T1 construct: Bought from BPS Bioscience; tie to the Fc fusion is by the Materials paragraph; also called h4-1BB; CD137; not shown: Fc part of the purchased fusion (BPS Bioscience)
Method: Briefly, biotinylated human 4-1 BB was diluted in PBST (PBS, pH 7.4 containing 0.005% Tween 20®) and coated on a NLC chip (BioRad) to a level of around 320 resonance units (RU) (600 RU for single trace SPR measurements). The interaction of ankyrin repeat protein and h4-1 BB was then measured by injecting 200 μl running buffer (PBS, pH 7.4 containing 0.005% Tween 20®) containing serial dilutions of ankyrin repeat proteins covering a concentration range between 50 nM and 0.5 nM for multi-trace SPR measurements or 50 nM for single trace measurements (on-rate measurement), followed by a running buffer flow for at least 30 minutes at a constant flow rate of 100 μl/min (off-rate measurement). The regeneration was performed using 30 μl of 10 mM Glycine pH 2 followed by 30 μl of 124 mM H₃PO₄. The signals (i.e. resonance unit (RU) values) of the interspots and a reference injection (i.e. injection of running buffer only) were subtracted from the RU traces obtained after injection of ankyrin repeat protein (double-referencing). Based on the SPR traces obtained from the on-rate and off-rate measurements, the on- and off-rate of the corresponding ankyrin repeat protein—4-1 BB interaction was determined.
Dissociation constants (KD) were calculated from the estimated on- and off-rates using standard procedures known to the person skilled in the art.

Row | Binder | Kd [nM]
1 | DARPin® protein #4 (designed binder) MRGSHHHHHHGSDLGKKLLEAARAGQDDEVRELLKAGADVNAKDTYGETPLHLAAWKGHLEIVEVLLKAGADVNAKDSIGITPLHVAAHHGHLEIVEVLLKAGADVNAKDKWGRTPLHLAALLGHLEIAEVLLKAGADVNAQDKSGKTPADLAADAGHDDIAEVLQKLN | 2.25
2 | DARPin® protein #6 (designed binder) MRGSHHHHHHGSDLGKKLLVAANVGQDDEVRILLAAGADVNAKDYHGYTPLHHAATYGHLEIVEVLLKAGADVNAKDQTGLTPLHLAAAKGHLEIVEVLLKAGADVNAQDHHGYTPADLAAFVGHEDIAVVLQKLN | 2.58
3 | DARPin® protein #3 (designed binder) MRGSHHHHHHGSDLGRKLLQAAQLGQDDEVRELLKAGADVNAKDSRGITPLHVAAWQGHLEIVEVLLKASADVNAKDHAGITPLHLAAFLGHLEIVEVLLKAGADVNAQDQEGRTPADLAALQGHEDIAKVLQKLN | 1.25
4 | DARPin® protein #9 (designed binder) MRGSHHHHHHGSDLGEKLLHAAYYGQDDEVRILLAAGADVNAKDNIGVTPLHFAAYFGHLEIVEVLLKAGADVNAQDYYGKTPADLAAYHGHEDIAEVLQKLN | 0.19
5 | DARPin® protein #10 (designed binder) MRGSHHHHHHGSDLGDKLLHAAYYGQDDEVRILLAAGADVNAKDNIGVTPLHFAAYFGHLEIVEVLLKAGADVNAQDYYGKTPADLAAYHGHEDIAEVLQKLN | 0.25
6 | DARPin® protein #8 (designed binder) MRGSHHHHHHGSDLGKKLLEAARAGQDDEVRELLKAGADVNAKDRFGSTPLHIAAREGHLEIVEVLLKAGADVNAKDSWGATPLHIAAWRGHLEIVEVLLKAGADVNAKDRWGRTPLHIAAWTGHLEIVEVLLKACADVNAQDKSGKTPADLAADVGLEDIAEVLQKLN | 0.02
7 | DARPin® protein #7 (designed binder) MRGSHHHHHHGSDLGSKLLNAARKGQDDEVRILLAAGADVNAKDYYGQTPLHLAAVFGHLEIVEVLLKAGADVNAKDVLGRTPLHVAAYAGHLEIAEVLLKAGADVNAQDFDGFTPADLAAYVGLEDIAEVLQKLN | 0.54

More lines, in order of falling Kd, values ahead:

Row | Kd [nM] | Binder
8 | 1.56 | DARPin® protein #25 (designed binder) MRGSHHHHHHGSDLGKKLLEAARAGQDDEVRELLKAGADVNAKDEWGETPLHLAAWKGHLEIVEVLLKAGADVNAKDSIGITPLHVAAHHGHLEIVEVLLKAGADVNAKDKWGRTPLHLAALLGHLEIVEVLLKAGADVNAQDKSGKTPADLAADAGREDIAEVLQKLN
9 | 0.86 | DARPin® protein #2 (designed binder) MRGSHHHHHHGSDLGKKLLVAANVGQDDEVRILLAAGADVNAKDYHGYTPLHHAATYGHLEIVEVLLKAGADVNAKDQTGLTPLHLAAAKGHLEIVEVLLKAGADVNAQDHHGYTPADLAAFVGHEDIAVVLQKLN
10 | 0.51 | DARPin® protein #14 (designed binder) MRGSHHHHHHGSDLGQKLLYAAFYGQDDEVRILLAAGADVNAKDFFGTTPLHWAAHAGHLEIVEVLLKAGADVNAKDQWGTTPLHYAAYYGHLEIVEVLLKAGADVNAQDDKGFTPADLAAIVGHEDIAEVLQKLN
11 | 0.47 | DARPin® protein #1 (designed binder) MRGSHHHHHHGSDLGQKLLKAAQEGQDDEVRELLKAGADVNAKDLRGITPLHVAAWQGHLEIVEVLLKAGADVNAKDSKGETPLHLAAFRGHLEIVEVLLKAGADVNAQDQQGETPADLAALAGHVDIAEVLQKAA
12 | 0.35 | DARPin® protein #5 (designed binder) MRGSHHHHHHGSDLGKKLLEAARAGQDDEVRELLKAGADVNAKDQEHGSTPLHLAANYGHLEIVEVLLKAGADVNAKNWWGNTPLHLAAVYGHLEIVEVLLKAGADVNAKDNHGHTPLHLAAWYGHLEIVEVLLKAGADVNAQDKSGKTPADLAADAGHEDIAEVLQKAA
